Reference: PMC2919415, “Integrating Ion Mobility Mass Spectrometry with Molecular Modelling to Determine the Architecture of Multiprotein Complexes” (PLoS ONE, 2010)
Values joined by “and” are separate entries in the source; they are usually repeats but may differ in a detail not shown here. Equal values may be shown once.

What was measured:
[1] = target: T1, δ′ subunit of the γ complex (clamp loader), E. coli (E. coli, UniProt P28631 1-334); experiment: native MS; nano-electrospray ion mobility-MS (Synapt HDMS) of γδ′ subcomplexes; γ and δ′ mixed 3:2, then exchanged into 0.1 M NH4OAc; details: both partners purified
T1 construct: δ′ subunit of the E. coli clamp loader (γ complex); source: overexpressed in E. coli and purified as described [45-48]

[2] = target: the molecule itself; experiment: as above
[3] = target: the molecule itself; experiment: native MS; nano-electrospray ion mobility-MS (Synapt HDMS) of γ alone; 0.1 M NH4OAc pH 6.9

B1: γ subunit of the γ complex (clamp loader), E. coli (natural protein, UniProt P06710-2 1-431, looked up)
chain: MSYQVLARKWRPQTFADVVGQEHVLTALANGLSLGRIHHAYLFSGTRGVGKTSIARLLAKGLNCETGITATPCGVCDNCREIEQGRFVDLIEIDAASRTKVEDTRDLLDNVQYAPARGRFKVYLIDEVHMLSRHSFNALLKTLEEPPEHVKFLLATTDPQKLPVTILSRCLQFHLKALDVEQIRHQLEHILNEEHIAHEPRALQLLARAAEGSLRDALSLTDQAIASGDGQVSTQAVSAMLGTLDDDQALSLVEAMVEANGERVMALINEAAARGIEWEALLVEMLGLLHRIAMVQLSPAALGNDMAAIELRMRELARTIPPTDIQLYYQTLLIGRKELPYAPDRRMGVEMTLLRALAFHPRMPLPEPEVPRQSFAPVAPTAVMTPTQVPPQPQSAPQQAPTVPLPETTSQVLAARQQLQRVQGATKAKKE
notes: γ subunit of the E. coli clamp loader (γ complex); the legend speaks of the full length γ subunit against the truncated γ of the crystal structure; also called γ2; γ3; source: overexpressed in E. coli and purified as described [45-48]
stoichiometry N [1]: 2 γ per δ′ and 3 γ per δ′
stoichiometry N [2]: 2 and 3
stoichiometry N [3]: 4
